From the Human Domainome abundance scans (Beltran et al. 2025)
± gives the uncertainty stated by the source.

B1: Steroid hormone receptor ERR2, residues 100 to 176; numbered along this chain, O95718 (parent)
chain: KRLCLVCGDIASGYHYGVASCEACKAFFKRTIQGNIEYSCPATNECEITKRRRKSCQACRFMKCLKVGMLKEGVRLD

Variants of: B1
Assay: abundance fitness (aPCA) (normalised: wild type 0, dead -1); higher = more abundant; growth selection in yeast, the domain comes from the species named
Conditions: Homo sapiens

Variant	abundance fitness
D9P	-0.894 ± 0.25
D9R	-0.508 ± 0.066
D9H	-0.365 ± 0.19
S39E	0.303 ± 0.043
S39G	0.19 ± 0.036
S39N	0.397 ± 0.1
S39V	0.294 ± 0.037
S39A	0.319 ± 0.038
G8S	-0.117 ± 0.052
G8N	-0.758 ± 0.18
G8A	-0.101 ± 0.055
E22Q	-0.092 ± 0.058
E22P	-0.188 ± 0.071
E22W	-0.142 ± 0.053
E22I	-0.459 ± 0.12
E22S	-0.154 ± 0.05
E22Y	-0.152 ± 0.076
E22V	-0.131 ± 0.048
N35A	0.069 ± 0.045
N35K	0.027 ± 0.055
N35W	-0.298 ± 0.057
N35R	-0.047 ± 0.038
N35G	0.271 ± 0.035
V6Q	-0.781 ± 0.14

Variant	abundance fitness
V6E	-0.612 ± 0.091
V6P	-0.978 ± 0.21
V6Y	-0.57 ± 0.16
M69A	-0.639 ± 0.094
M69I	-0.581 ± 0.2
M69Y	-0.259 ± 0.097
M69C	-0.937 ± 0.21
M69L	-0.431 ± 0.06
M69Q	-0.752 ± 0.14
L76M	-0.001 ± 0.067
L76S	-0.07 ± 0.062
F27A	-0.621 ± 0.071
F27N	-1.01 ± 0.27
F27R	-0.715 ± 0.061
F27L	-0.204 ± 0.043
F27P	-0.573 ± 0.12
F28V	-0.315 ± 0.047
F28S	-0.832 ± 0.1
F28R	-0.757 ± 0.065
F28K	-0.694 ± 0.11
T49R	-0.2 ± 0.062
T49N	0.015 ± 0.11
T49D	0.118 ± 0.11
T49K	-0.035 ± 0.099

Variant	abundance fitness
T49F	-0.254 ± 0.17
T49P	-0.223 ± 0.088
L70E	0.101 ± 0.051
L70R	0.014 ± 0.043
L70P	-0.044 ± 0.091
L70D	0.069 ± 0.087
L70I	0.034 ± 0.095
L65Y	-0.456 ± 0.17
L65I	-0.289 ± 0.11
L65T	-0.516 ± 0.093
C7A	-0.775 ± 0.11
C7R	-0.586 ± 0.069
C7V	-0.976 ± 0.12
Y16M	-0.239 ± 0.074
Y16D	0.008 ± 0.054
K63A	-0.233 ± 0.052
K63V	-0.522 ± 0.058
K63S	-0.611 ± 0.069
K63M	-0.11 ± 0.06
K63T	-0.226 ± 0.068
K54C	-0.351 ± 0.1
K54T	-0.024 ± 0.066
K54I	0.073 ± 0.093
K54W	-0.05 ± 0.058

Variant	abundance fitness
K54N	0.175 ± 0.086
K54G	0.155 ± 0.043
A19Y	-0.223 ± 0.092
A19P	-0.065 ± 0.074
A19F	-0.326 ± 0.14
A19W	-0.307 ± 0.057
A19I	-0.464 ± 0.14
A19R	-0.331 ± 0.041
A19E	0.043 ± 0.05
P41G	0.128 ± 0.039
P41M	-0.161 ± 0.061
P41F	-0.214 ± 0.1
P41I	-0.071 ± 0.078
K71I	-0.047 ± 0.09
K71E	-0.07 ± 0.054
K71Y	-0.222 ± 0.12
K71L	-0.148 ± 0.047
K1S	-0.295 ± 0.1
E37L	-0.657 ± 0.09
E37F	-0.851 ± 0.42
G34R	-0.033 ± 0.037
G34H	-0.282 ± 0.12
G34V	-0.186 ± 0.046
G34N	-0.058 ± 0.15

Variant	abundance fitness
G34P	-0.904 ± 0.18
G34Q	0.254 ± 0.057
G34W	-0.08 ± 0.048
G34Y	0.075 ± 0.1
V74I	-0.026 ± 0.088
V74G	-0.089 ± 0.039
V74S	-0.017 ± 0.052
V74F	-0.171 ± 0.091
R60E	-0.764 ± 0.1
R60I	-0.23 ± 0.11
R60A	-0.031 ± 0.047
R60F	0.211 ± 0.075
R60D	-0.828 ± 0.18
E45C	-0.396 ± 0.11
E45A	-0.172 ± 0.051
E45D	-0.086 ± 0.086
E45M	-0.176 ± 0.068
G13A	-0.751 ± 0.17
G13K	-0.336 ± 0.23
G13D	-0.02 ± 0.092
G13N	-0.362 ± 0.21
S20Q	-0.007 ± 0.055
S20V	0.34 ± 0.039
S20C	0.414 ± 0.047

Variant	abundance fitness
S20N	0.131 ± 0.077
C46K	-0.572 ± 0.14
C46A	-0.888 ± 0.14
C46N	-0.735 ± 0.2
C46Q	-0.834 ± 0.17
C46E	-0.623 ± 0.11
C46F	-0.768 ± 0.21
C46L	-0.803 ± 0.1
K66C	-0.354 ± 0.1
K66V	-0.241 ± 0.059
C56P	-0.666 ± 0.15
C56G	-0.718 ± 0.073
C56R	-0.872 ± 0.097
C56Y	-0.884 ± 0.24
C56W	-0.722 ± 0.14
K25H	0.262 ± 0.062
K25F	0.194 ± 0.063
K25V	0.344 ± 0.034
G68A	-0.777 ± 0.098
G68L	-0.749 ± 0.11
T43Q	-0.175 ± 0.068
T43Y	-0.252 ± 0.18
R75C	0.117 ± 0.067
R75V	0.002 ± 0.042

Variant	abundance fitness
R75H	-0.165 ± 0.11
R75D	0.04 ± 0.07
A42L	-0.064 ± 0.042
A42E	0.027 ± 0.055
A42V	-0.153 ± 0.049
A42D	0.045 ± 0.065
C21D	-0.518 ± 0.3
C21T	-0.871 ± 0.14
C21W	-0.94 ± 0.15
R52V	-0.003 ± 0.057
R52N	-0.156 ± 0.15
R52E	0.136 ± 0.051
R52S	-0.155 ± 0.068
V18R	-0.384 ± 0.07
V18P	-0.331 ± 0.078
V18C	-0.169 ± 0.076
V18F	-0.428 ± 0.089
V18W	-0.657 ± 0.094
R2Y	0.014 ± 0.11
R2K	-0.066 ± 0.074
A23R	0.166 ± 0.037
A23V	-0.014 ± 0.046
A23G	0.321 ± 0.035
A23Q	-0.039 ± 0.064

Variant	abundance fitness
A23T	-0.376 ± 0.091
A23K	-0.03 ± 0.059
A23I	-0.806 ± 0.41
A23L	-0.371 ± 0.057
A23H	-0.16 ± 0.099
A23Y	-0.56 ± 0.18
A23D	0.049 ± 0.1
F61M	0 ± 0.063
F61G	-0.602 ± 0.056
F61C	-1.06 ± 0.26
F61T	-0.759 ± 0.15
F61V	-0.269 ± 0.053
F61R	-0.487 ± 0.054
K50E	0.224 ± 0.088
K50I	0.112 ± 0.065
K50T	0.019 ± 0.059
K50A	0.126 ± 0.059
S55K	0.149 ± 0.057
S55N	0.405 ± 0.085
S55P	0.257 ± 0.069
S55C	0.393 ± 0.063
S55H	0.351 ± 0.094
S55W	0.263 ± 0.051
S55R	0.22 ± 0.041

Variant	abundance fitness
T31H	-0.655 ± 0.18
T31F	-1.1 ± 0.43
T31C	-0.423 ± 0.086
T31A	-0.353 ± 0.061
C24P	-1.13 ± 0.22
C24Q	-0.685 ± 0.12
C24M	-0.859 ± 0.11
C24S	-0.869 ± 0.11
C24N	-0.939 ± 0.3
C24D	0.265 ± 0.07
R51T	-0.04 ± 0.064
H15P	-0.32 ± 0.092
H15V	-0.369 ± 0.071
H15D	-0.211 ± 0.1
H15E	-0.045 ± 0.085
I36D	-0.062 ± 0.077
I36G	-0.273 ± 0.041
I36R	-0.26 ± 0.043
I36T	-0.288 ± 0.078
Q57D	-0.042 ± 0.062
Q57R	-0.17 ± 0.042
Q57H	-0.347 ± 0.1
C40A	-0.91 ± 0.12
C40N	-0.586 ± 0.26

Variant	abundance fitness
C40M	-0.742 ± 0.13
G73N	-0.107 ± 0.11
G73F	-0.369 ± 0.14
G73M	0.007 ± 0.069
G73Y	-0.6 ± 0.22
G73V	-0.132 ± 0.05
Q33T	-0.193 ± 0.089
Q33Y	-0.054 ± 0.14
Q33D	-0.081 ± 0.082
Q33I	-0.697 ± 0.22
Q33E	-0.03 ± 0.06
Q33F	-0.577 ± 0.22
C4R	-0.792 ± 0.094
C4F	-1.09 ± 0.37
C4A	-0.801 ± 0.11
C4E	-0.634 ± 0.12
E72T	-0.104 ± 0.063
E72D	-0.012 ± 0.086
E72I	-0.299 ± 0.14
L3H	0.133 ± 0.072
L3N	0.179 ± 0.07
L3S	-0.062 ± 0.053
L3R	-0.152 ± 0.042
L3F	0.284 ± 0.077

Variant	abundance fitness
L3T	-0.025 ± 0.054
L3C	-0.373 ± 0.11
L3Q	-0.055 ± 0.062
L3E	-0.048 ± 0.052
C59E	-0.704 ± 0.11
C59T	-0.872 ± 0.15
C59H	-0.545 ± 0.18
C59K	-0.483 ± 0.12
C59W	-0.684 ± 0.11
N44R	0.011 ± 0.038
N44S	-0.127 ± 0.05
N44D	0.119 ± 0.086
N44T	-0.22 ± 0.063
N44K	0.007 ± 0.054
N44E	0.022 ± 0.048
N44G	0.117 ± 0.038
N44Y	-0.278 ± 0.13
M62T	0.106 ± 0.059
M62C	-1.07 ± 0.3
M62K	0.141 ± 0.052
M62A	0.013 ± 0.044
M62W	-0.136 ± 0.051
K29D	-0.014 ± 0.072
K29M	-0.064 ± 0.065

Variant	abundance fitness
A11R	-0.516 ± 0.067
A11P	-0.542 ± 0.14
A11K	-0.424 ± 0.077
A11M	-0.103 ± 0.064
C64R	-0.751 ± 0.073
C64H	-1.04 ± 0.4
C64N	-0.483 ± 0.21
A58D	-0.334 ± 0.098
A58M	-0.227 ± 0.076
A58H	-0.445 ± 0.13
A58T	-0.518 ± 0.12
I48M	-0.166 ± 0.11
Y38I	-0.421 ± 0.36
Y38W	0.097 ± 0.047
Y38E	-0.586 ± 0.11
I10L	-0.139 ± 0.056
I10K	0.037 ± 0.06
I10P	0.065 ± 0.072
I10E	0.045 ± 0.051
I10N	-0.393 ± 0.11
E47I	-0.476 ± 0.16
E47M	-0.592 ± 0.15
L5N	-0.246 ± 0.083
L5W	-0.332 ± 0.081

Variant	abundance fitness
L5K	-0.143 ± 0.062
L5V	-0.424 ± 0.067
L5Q	-0.094 ± 0.061
L5H	-0.351 ± 0.18
S12I	-0.327 ± 0.14
S12G	-0.023 ± 0.048
S12H	0.082 ± 0.072
I32C	-0.803 ± 0.26
I32A	-0.21 ± 0.054
I32V	0.055 ± 0.044
I32S	-0.184 ± 0.059
I32L	-0.362 ± 0.059
D77W	-0.287 ± 0.12
R30H	-0.357 ± 0.14
R30F	-0.763 ± 0.19
R30W	-0.121 ± 0.05
R30Q	0.109 ± 0.057
R30T	-0.193 ± 0.087
A26N	-0.504 ± 0.17
A26W	-0.075 ± 0.042
A26C	-0.046 ± 0.061
A26D	0.035 ± 0.081
V67C	-0.027 ± 0.074
V67D	-0.646 ± 0.21

Variant	abundance fitness
V67L	-0.222 ± 0.057
V67N	-0.538 ± 0.24
V67E	-0.145 ± 0.058
V67F	-0.24 ± 0.15
Y14V	0.136 ± 0.043
Y14P	-0.315 ± 0.12
Y14R	-0.446 ± 0.075
Y14E	0.101 ± 0.066
Y14K	0.03 ± 0.077
R53W	-0.084 ± 0.06
R53N	0.027 ± 0.093
R53C	-0.103 ± 0.08
R53S	-0.114 ± 0.058
R53Q	0.096 ± 0.066
R53A	0.005 ± 0.051
R53V	-0.008 ± 0.054
G17P	-0.416 ± 0.093
G17L	-0.601 ± 0.068
G17D	-0.091 ± 0.11
G17A	-0.075 ± 0.045
G17Q	-0.748 ± 0.11
G17S	-0.266 ± 0.056
